Experimental data as given in article doi:10.1101/854158 (bioRxiv, 2019).
One block for each binder: values may come before it.

B4: FANCA (natural protein)
chain: MSDSWVPNSASGQDPGGRRRAWAELLAGRVKREKYNPERAQKLKESAVRLLRSHQDLNALLLEVEGPLCKKLSLSKVIDCDSSEAYANHSSSFIGSALQDQASRLGVPVGILSAGMVASSVGQICTAPAETSHPVLLTVEQRKKLSSLLEFAQYLLAHSMFSRLSFCQELWKIQSSLLLEAVWHLHVQGIVSLQELLESHPDMHAVGSWLFRNLCCLCEQMEASCQHADVARAMLSDFVQMFVLRGFQKNSDLRRTVEPEKMPQVTVDVLQRMLIFALDALAAGVQEESSTHKIVRCWFGVFSGHTLGSVISTDPLKRFFSHTLTQILTHSPVLKASDAVQMQREWSFARTHPLLTSLYRRLFVMLSAEELVGHLQEVLETQEVHWQRVLSFVSALVVCFPEAQQLLEDWVARLMAQAFESCQLDSMVTAFLVVRQAALEGPSAFLSYADWFKASFGSTRGYHGCSKKALVFLFTFLSELVPFESPRYLQVHILHPPLVPGKYRSLLTDYISLAKTRLADLKVSIENMGLYEDLSSAGDITEPHSQALQDVEKAIMVFEHTGNIPVTVMEASIFRRPYYVSHFLPALLTPRVLPKVPDSRVAFIESLKRADKIPPSLYSTYCQACSAAEEKPEDAALGVRAEPNSAEEPLGQLTAALGELRASMTDPSQRDVISAQVAVISERLRAVLGHNEDDSSVEISKIQLSINTPRLEPREHMAVDLLLTSFCQNLMAASSVAPPERQGPWAALFVRTMCGRVLPAVLTRLCQLLRHQGPSLSAPHVLGLAALAVHLGESRSALPEVDVGPPAPGAGLPVPALFDSLLTCRTRDSLFFCLKFCTAAISYSLCKFSSQSRDTLCSCLSPGLIKKFQFLMFRLFSEARQPLSEEDVASLSWRPLHLPSADWQRAALSLWTHRTFREVLKEEDVHLTYQDWLHLELEIQPEADALSDTERQDFHQWAIHEHFLPESSASGGCDGDLQAACTILVNALMDFHQSSRSYDHSENSDLVFGGRTGNEDIISRLQEMVADLELQQDLIVPLGHTPSQEHFLFEIFRRRLQALTSGWSVAASLQRQRELLMYKRILLRLPSSVLCGSSFQAEQPITARCEQFFHLVNSEMRNFCSHGGALTQDITAHFFRGLLNACLRSRDPSLMVDFILAKCQTKCPLILTSALVWWPSLEPVLLCRWRRHCQSPLPRELQKLQEGRQFASDFLSPEAASPAPNPDWLSAAALHFAIQQVREENIRKQLKKLDCEREELLVFLFFFSLMGLLSSHLTSNSTTDLPKAFHVCAAILECLEKRKISWLALFQLTESDLRLGRLLLRVAPDQHTRLLPFAFYSLLSYFHEDAAIREEAFLHVAVDMYLKLVQLFVAGDTSTVSPPAGRSLELKGQGNPVELITKARLFLLQLIPRCPKKSFSHVAELLADRGDCDPEVSAALQSRQQAAPDADLSQEPHLF

Experiments:
Experiment in all cases: cryo-EM structure
FANCA = molecular target: B4
cryo-EM structure = molecular target: the molecule itself
FANCC = molecular target: T1, FANCC (human, UniProt Q00597 1-558)
T1 sequence: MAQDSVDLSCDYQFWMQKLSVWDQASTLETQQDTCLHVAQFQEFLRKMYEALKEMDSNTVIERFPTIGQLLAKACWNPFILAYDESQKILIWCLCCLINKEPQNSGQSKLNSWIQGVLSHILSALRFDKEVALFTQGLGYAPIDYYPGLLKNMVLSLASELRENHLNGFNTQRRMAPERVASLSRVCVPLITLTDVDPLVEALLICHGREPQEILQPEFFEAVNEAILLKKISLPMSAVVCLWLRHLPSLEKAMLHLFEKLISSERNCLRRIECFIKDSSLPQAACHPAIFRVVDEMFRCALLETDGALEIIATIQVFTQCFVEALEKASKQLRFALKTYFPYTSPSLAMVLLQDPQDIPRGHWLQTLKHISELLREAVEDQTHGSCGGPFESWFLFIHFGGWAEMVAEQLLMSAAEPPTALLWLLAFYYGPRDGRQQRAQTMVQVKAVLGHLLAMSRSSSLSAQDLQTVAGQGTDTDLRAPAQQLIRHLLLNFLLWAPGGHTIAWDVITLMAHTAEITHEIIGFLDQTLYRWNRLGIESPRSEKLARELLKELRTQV

binding result (FANCA): binds
B1: FAAP100 (natural protein)
chain: MAGAAPRVRYLAGFCCPLGGLAAGKPRVLCHEAEVFLSTGSELVYVYDQEGGLLTAAFRFPDQVWHLELLAPRRLLYALCARRGLYCLSLDHPGRSRSTSQDDRDSEDGDQPSPVIPVDPDACILPDAALCAFTLLDSVLVTLVQGPARWKMQLFEQPCPGEDPRPGGQIGEVELSSYTPPAGVPGKPAAPHFLPVLCSVSPSGSRVPHDLLGGSGGFTLEDALFGLLFGADATLLQSPVVLCGLPDGQLCCVILKALVTSRSAPGDPNALVKILHHLEEPVIFIGALKTEPQAAEAAENFLPDEDVHCDCLVAFGHHGRMLAIKASWDESGKLVPELREYCLPGPVLCAACGGGGRVYHSTPSDLCVVDLSRGSTPLGPEQPEEGPGGLPPMLCPASLNICSVVSLSASPRTHEGGTKLLALSAKGRLMTCSLDLDSEMPGPARMTTESAGQKIKELLSGIGNISERVSFLKKAVDQRNKALTSLNEAMNVSCALLSSGTGPRPISCTTSTTWSRLQTQDVLMATCVLENSSSFSLDQGWTLCIQVLTSSCALDLDSACSAITYTIPVDQLGPGARREVTLPLGPGENGGLDLPVTVSCTLFYSLREVVGGALAPSDSEDPFLDECPSDVLPEQEGVCLPLSRHTVDMLQCLRFPGLAPPHTRAPSPLGPTRDPVATFLETCREPGSQPAGPASLRAEYLPPSVASIKVSAELLRAALKDGHSGVPLCCATLQWLLAENAAVDVVRARALSSIQGVAPDGANVHLIVREVAMTDLCPAGPIQAVEIQVESSSLADICRAHHAVVGRMQTMVTEQATQGSSAPDLRVQYLRQIHANHETLLREVQTLRDRLCTEDEASSCATAQRLLQVYRQLRHPSLILL

binding result (FANCA): binds
B2: FANCB (natural protein)
chain: MTSKQAMSSNEQERLLCYNGEVLVFQLSKGNFADKEPTKTPILHVRRMVFDRGTKVFVQKSTGFFTIKEENSHLKIMCCNCVSDFRTGINLPYIVIEKNKKNNVFEYFLLILHSTNKFEMRLSFKLGYEMKDGLRVLNGPLILWRHVKAFFFISSQTGKVVSVSGNFSSIQWAGEIENLGMVLLGLKECCLSEEECTQEPSKSDYAIWNTKFCVYSLESQEVLSDIYIIPPAYSSVVTYVHICATEIIKNQLRISLIALTRKNQLISFQNGTPKNVCQLPFGDPCAVQLMDSGGGNLFFVVSFISNNACAVWKESFQVAAKWEKLSLVLIDDFIGSGTEQVLLLFKDSLNSDCLTSFKITDLGKINYSSEPSDCNEDDLFEDKQENRYLVVPPLETGLKVCFSSFRELRQHLLLKEKIISKSYKALINLVQGKDDNTSSAEEKECLVPLCGEEENSVHILDEKLSDNFQDSEQLVEKIWYRVIDDSLVVGVKTTSSLKLSLNDVTLSLLMDQAHDSRFRLLKCQNRVIKLSTNPFPAPYLMPCEIGLEAKRVTLTPDSKKEESFVCEHPSKKECVQIITAVTSLSPLLTFSKFCCTVLLQIMERESGNCPKDRYVVCGRVFLSLEDLSTGKYLLTFPKKKPIEHMEDLFALLAAFHKSCFQITSPGYALNSMKVWLLEHMKCEIIKEFPEVYFCERPGSFYGTLFTWKQRTPFEGILIIYSRNQTVMFQCLHNLIRILPINCFLKNLKSGSENFLIDNMAFTLEKELVTLSSLSSAIAKHESNFMQRCEVSKGKSSVVAAALSDRRENIHPYRKELQREKKKMLQTNLKVSGALYREITLKVAEVQLKSDFAAQKLSNL
binding result (cryo-EM structure): binds

binding result (FANCC): binds
B3: FANCE (natural protein)
chain: MATPDAGLPGAEGVEPAPWAQLEAPARLLLQALQAGPEGARRGLGVLRALGSRGWEPFDWGRLLEALCREEPVVQGPDGRLELKPLLLRLPRICQRNLMSLLMAVRPSLPESGLLSVLQIAQQDLAPDPDAWLRALGELLRRDLGVGTSMEGASPLSERCQRQLQSLCRGLGLGGRRLKSPQAPDPEEEENRDSQQPGKRRKDSEEEAASPEGKRVPKRLRCWEEEEDHEKERPEHKSLESLADGGSASPIKDQPVMAVKTGEDGSNLDDAKGLAESLELPKAIQDQLPRLQQLLKTLEEGLEGLEDAPPVELQLLHECSPSQMDLLCAQLQLPQLSDLGLLRLCTWLLALSPDLSLSNATVLTRSLFLGRILSLTSSASRLLTTALTSFCAKYTYPVCSALLDPVLQAPGTGPAQTELLCCLVKMESLEPDAQVLMLGQILELPWKEETFLVLQSLLERQVEMTPEKFSVLMEKLCKKGLAATTSMAYAKLMLTVMTKYQANITETQRLGLAMALEPNTTFLRKSLKAALKHLGP

Binder: B4
stoichiometry N (cryo-EM structure): 2
